Laboratory results: patent publication EP4335870A1 (NantCell, Inc., dated 2024)
Numbering of substitutions follows the chain as printed.

B1: N-612-017 (antibody, V domains shown)
VH: EVQLVESGGGLVQPGGSLRLSCAASGFTFSSYAMHWVRQAPGKGLEWVSAIWGSGSNTYYADSVKGRFTISRDNSKNTLYLQMNSLRAEDTAVYYCARGRDLAAFTKTAFDVWGQGTLVTVSS
VL: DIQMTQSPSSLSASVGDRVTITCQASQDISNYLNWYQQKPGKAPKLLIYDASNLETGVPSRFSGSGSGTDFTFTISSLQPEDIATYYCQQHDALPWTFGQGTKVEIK
B2: N-612-017-5B05 SV (antibody, V domains shown)
VH: B1 VH with A33V, R72V, R100E, D101E
VL: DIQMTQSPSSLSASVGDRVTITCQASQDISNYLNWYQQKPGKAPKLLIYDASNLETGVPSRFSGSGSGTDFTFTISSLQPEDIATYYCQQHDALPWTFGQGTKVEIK
B3: N-612-056-21 (antibody, V domains shown)
VH: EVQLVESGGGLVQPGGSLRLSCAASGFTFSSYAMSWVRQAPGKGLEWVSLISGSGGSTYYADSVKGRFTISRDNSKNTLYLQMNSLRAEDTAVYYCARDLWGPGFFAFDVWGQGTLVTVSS
VL: DIQMTQSPSSLSASVGDRVTITCQASQDISNYLNWYQQKPGKAPKLLIYDASNLETGVPSRFSGSGSGTDFTFTISSLQPEDIATYYCQQDAGTPLTFGQGTKVEIK
B4: N-612-056 (antibody, V domains shown)
VH: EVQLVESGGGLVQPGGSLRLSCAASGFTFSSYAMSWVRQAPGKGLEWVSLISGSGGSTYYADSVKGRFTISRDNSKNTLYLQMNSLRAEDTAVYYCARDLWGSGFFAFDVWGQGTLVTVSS
VL: B3 VL
B5: N-612-007 (antibody, V domains shown)
VH: EVQLVESGGGLVQPGGSLRLSCAASGFTFSNYAMHWVRQAPGKGLEWVSAISGNGGSTGYADSVKGRFTISRDNSKNTLYLQMNSLRAEDTAVYYCARDRWYVKNAFDVWGQGTLVTVSS
VL: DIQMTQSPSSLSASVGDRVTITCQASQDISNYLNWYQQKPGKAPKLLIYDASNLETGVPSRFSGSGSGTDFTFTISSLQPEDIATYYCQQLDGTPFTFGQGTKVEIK
B6: N-612-004 (antibody, V domains shown)
VH: EVQLVESGGGLVQPGGSLRLSCAASGFTFSSYYMHWVRQAPGKGLEWVSAISGSGGYTYYADSVKGRFTISRDNSKNTLYLQMNSLRAEDTAVYYCARDRDHAYDWGFDVWGQGTLVTVSS
VL: B3 VL with D91W, G93D, T94W
B7: N-612-014 (antibody, V domains shown)
VH: EVQLVESGGGLVQPGGSLRLSCAASGFTFSSYAMTWVRQAPGKGLEWVSYISGSGGGTYYADSVKGRFTISRDNSKNTLYLQMNSLRAEDTAVYYCARDRWASGWLAFDVWGQGTLVTVSS
VL: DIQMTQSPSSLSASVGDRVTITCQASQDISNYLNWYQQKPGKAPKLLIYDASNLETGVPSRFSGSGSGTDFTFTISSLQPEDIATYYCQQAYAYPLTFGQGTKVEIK

Target: SARS-CoV-2 Spike receptor binding domain (RBD), wildtype (SARS-CoV-2, UniProt P0DTC2 319-541)
Assay: not given

Row | Binder | Kd
1 | B1 | 5.29 nM
2 | B2 | 6.62 nM
3 | B3 | 0.41 nM
4 | B4 | 2.98 nM

Target: SARS-CoV-2 Spike protein on live SARS-CoV-2 (SARS-CoV-2, UniProt P0DTC2 14-1273)
Assay: cell-based or functional assay

Row | Binder | live SARS-CoV-2 neutralization IC50
5 | B5 | 0.0452 µg/mL
6 | B1 | 0.0756 µg/mL
7 | B6 | 0.194 µg/mL
8 | B4 | 0.855 µg/mL
9 | B7 | 0.00791 µg/mL
